Experiment [1] deals with NCI/ADR-RES ovarian cancer cells. Kind of experiment: TUNEL staining, combination with doxorubicin. Type of experiment: cell-based, human. As to conditions: 24 h. From the text:
As rat anti-Axl antibodies of the invention turned out to interfere with Gas6-mediated anti-apoptosis of serum-starved NIH3T3-Axl cl.7 fibroblasts, the question arose, whether antagonistic anti-Axl antibodies would synergize with chemotherapeutic agents in inducing apoptosis, thereby contributing to overcome drug resistance. In this example, NCI/ADR-RES (originally named MCF-7/AdrR) cells—a ovarian cancer cell line (Liscovitch and Ravid, 2007, Cancer Letters, 245, 350-352) displaying a high level of resistance to several agents including doxorubicin (Fairchild et al., 1987, Cancer Research, 47, 5141-5148; Xu et al., 2002, The Journal of Pharmacology and Experimental Therapeutics, 302, 963-971)—were incubated with the antagonistic anti-Axl antibody 11B7 and/or doxorubicin, and apoptosis rates were determined by TUNEL staining. In brief, 3×10^4 NCI/ADR-RES cells in normal growth medium were seeded per well of an 8-chamber culture slide (BD Falcon, cat#354118) which were pre-incubated with the same medium for 1 h at 37° C. The next morning, normal growth medium was removed and cells were washed with and cultured in serum-reduced (0.5% FCS) medium. In the evening, isotypic control antibody 1D5 or the antagonistic anti-Axl antibody 11B7 were added at final concentrations of 10 μg/ml each. In the morning of day 3, doxorubicin at final concentrations of 100 μM, 150 μM, or 200 μM was added, and cells were incubated at 37° C. After 24 h, cells were rinsed once with PBS, fixed with 4% formaldehyde in PBS (pH 7.5) for 20 min at room temperature, air-dried for 5 min, and stored at −20° C. Using the commercially available Fluorescein-FragEL™ kit (Oncogene, cat#QIA39, presently being distributed through Merck-Calbiochem), TUNEL staining was performed according to the supplier's manual instructions (chapter ‘Fluorescein-FragEL™ of cell preparations fixed on slides’, page 10). Applying fluorescence microscopy, cells were analyzed and photos were taken.

Another experiment concerns the target T1, human AXL-ECD (Homo sapiens, UniProt P30530).
T1 construct: purchased R&D Systems 154-AL
T1 sequence (P30530 26-451 limits assumed): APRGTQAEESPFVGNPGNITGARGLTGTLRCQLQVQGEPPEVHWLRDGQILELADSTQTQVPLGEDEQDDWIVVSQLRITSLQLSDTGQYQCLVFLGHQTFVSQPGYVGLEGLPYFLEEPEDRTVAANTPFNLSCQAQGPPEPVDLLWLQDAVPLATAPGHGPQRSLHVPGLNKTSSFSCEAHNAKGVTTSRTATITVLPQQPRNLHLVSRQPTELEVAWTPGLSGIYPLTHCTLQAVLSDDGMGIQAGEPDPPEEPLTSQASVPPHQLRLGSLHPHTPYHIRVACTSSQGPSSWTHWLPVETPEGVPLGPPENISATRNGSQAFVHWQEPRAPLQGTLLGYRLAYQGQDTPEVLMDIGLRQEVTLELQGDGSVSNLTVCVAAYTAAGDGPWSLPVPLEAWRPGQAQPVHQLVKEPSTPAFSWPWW
Kind of experiment: Competition ELISA on AXL-ECD coated plates. In kind it is binding. As to conditions: 10 μg/ml unbiotinylated, 0.5 μg/ml biotinylated antibody. On the procedure:
Therefore binding of biotinylated anti-AXL antibodies to AXL-ECD domain-coated plates preincubated with anti-AXL antibodies was determined in a competition ELISA. […] On day 1, black 96 well Maxi-Sorp plates (Nunc) were coated with 100 μl/well of 1 μg/ml human AXL-ECD (R&D Systems #154-AL) in PBS over night at 4° C. […] After washing 6× with wash buffer (PBS, 0.1% TWEEN-20), 80 μl/well AP-conjugated Streptavidin (Chemicon #SA110) diluted 1:4,000 in blocking buffer were added, incubated for 20 min at room temperature washed again 6× with wash buffer and finally washed once with PBS. For detection, 100 μl/well Attophos substrate solution (Roche #11681982) were added. Using a Victor plate reader (Perkin Elmer), the fluorescence of each well was collected at an excitation wavelength of 430 nm an emission wavelength of 580 nm.
A general note: ELISA stands for enzyme-linked immunosorbent assay.

For the next experiment, the system named is HUVEC spheroids. In words: Spheroid-based cellular angiogenesis assay. Particulars: 25 ng/ml VEGF-A, 24 h. Type of experiment: cell-based, human. On the procedure: AXL is a key regulator of multiple angiogenic behaviors including endothelial cell migration, proliferation, and tube formation in vitro (Holland et al., Cancer Res: 65, 9294-9303, 2005). […] The experiments were pursued in modification of the originally published protocol (Korff and Augustin: J Cell Sci 112: 3249-58, 1999). In brief, spheroids were prepared as described (Korff and Augustin: J Cell Biol 143: 1341-52, 1998) by pipetting 500 human umbilical vein endothelial cells (HUVEC) in a hanging drop on plastic dishes to allow over night spheroid aggregation. 50 HUVEC spheroids were then seeded in 0.9 ml of a collagen solution (2 mg/ml) and pipetted into individual wells of a 24 well plate to allow polymerization. […] Plates were incubated at 37° C. for 24 hours and fixed by adding 4% paraformaldehyde. Sprouting intensity of HUVEC spheroids was quantified by an image analysis system that determines the cumulative sprout length per spheroid using an inverted microscope and the digital imaging software Analysis 3.2 (Soft imaging system, Munster, Germany). The mean of the cumulative sprout length of 10 randomly selected spheroids was analyzed as an individual data point.

Experiment [2] has as its system NCI-H292 lung cancer cells. In words: Wound healing/scratch assay. Type of experiment: cell-based, human. Particulars: 10 μg/ml antibody, 24 h, compared to isotypic control antibody. An excerpt:
To examine the migration and proliferation rates of different cells and culture conditions, in vitro wound healing/scratch assays are being employed for many years. These assays generally involve growing a confluent cell monolayer first. A small area is then disrupted and a group of cells are being destroyed or displaced by scratching a line through the layer with, for example, a pipette tip. The open gap is then inspected microscopically over time as the cells move in and fill the damaged area (“healing”). In brief, 1.5×10^6 NCI-H292 lung cancer cells were seeded per well of a 12 well dish and cultured in normal growth medium (RPMI, 10% FCS). After 8 h, cells were rinsed with PBS and starved in low serum medium (RPMI, 0.5% FCS) over night for 24 h. Using a sterile 200 μl pipette tip, three separate uniform wounds per well were scratched through the confluent NCI-H292 cell monolayers. […] Cells were permitted to migrate into the area of clearing for 24 h, washed once with PBS and fixed with ice cold Methanol (100%) at −20° C. After cells were stained with crystal violet (0.5% in 20% Methanol), rinsed with water and dried over night, photos of the wounds were taken.

The values that follow come from patent publication US8933202B2, “AXL antibodies” (U3 Pharma GmbH, priority 2007, dated 2015).

B1: 11B7: antagonistic rat anti-AXL monoclonal antibody, rat IgG1 (antibody, V domains shown)
VL: DIQMTQAPSSLPASLGDRVTITCRASQDIGNYLRWFQQKPGKSPRLMISGATNLAAGVPSRFSGSRSGSDYSLTISSLESEDMADYYCLQSKESPWTFGGGTKLELK
VH: EVQLQESGPGLVKPSQSLSLTCSVTGYSITSNYWGWIRKFPGDKMEWMGYITYSGSTSYNPSLKSRISITRDTSKNQFFLQLNSVTSEDTATYYCAITTFYYWGQGVMVTVSS
Regarding B1, the “apoptosis (TUNEL staining), co-incubation with 100 μM doxorubicin” value in experiment [1] (10 μg/ml 11B7 + 100 μM doxorubicin) was “No TUNEL staining, and hence no apoptosis”. For the same molecule, the “apoptosis (TUNEL staining), co-incubation with 150 μM doxorubicin” value in experiment [1] (10 μg/ml 11B7 + 150 μM doxorubicin) is “substantial induction of apoptosis”. Besides, the “apoptosis (TUNEL staining), co-incubation with 200 μM doxorubicin” value in experiment [1] (10 μg/ml 11B7 + 200 μM doxorubicin, compared to control IgG antibody) is listed as “significantly increased apoptosis rates”. Besides, in the experiment with human AXL-ECD, the “competition with antagonistic anti-AXL antibodies for binding to AXL-ECD” value is “compete with each other for the same or structurally adjacent epitopes”. Further, the “HUVEC sprouting at the highest antibody concentration” value in the experiment with HUVEC spheroids is “reduced HUVEC sprouting to basal levels”. The “re-population of the cleared area (wound closure)” value in experiment [2] is recorded as “reduced the re-population of the cleared area”.
